Target: T1, CMG2 (UniProt P58335 34-489, limits assumed)
T1 construct: whole, on cells; also called ANTXR2; CHO/CMG2
Assay: flow cytometry on CHO/CMG2 cells

binding result: no binding
B1: AF334 anti-TEM8 monoclonal antibody (antibody, V domains shown)
VH: QVKLEESGAELVRPGVSVKISCKGSGYTFTDYAMHWVKQSHAKSLEWIGVISTYFGDATYNQKFKGKATMTVDKSSSTAYMELARLTSEDSAIYYCAREDYVPFAYWGQGTLVTVSA
VL: DIVMTQTPPSVPVTPGESVSISCRSSKSLLHSNGNTYLYWFLQRPGQSPQLLIYRMSNLASGVPDRFSGSGSGTAFTLRISRVEAEDVGVYYCMQHLEYPFTFGSGTKLEIKR

Source: patent US20160319016A1 (GOVERNMENT OF THE UNITED STATES OF AMERICA AS REPRESENTED …, published 2016)
